Data set [1] has as its target T1, mitochondrial heat shock protein 60 V72I (mtHsp60^V72I) (human, UniProt P10809 53-573, V72I). Briefly: cryo-EM structure; mtHsp60^V72I 0.2-0.6 mg/ml in ATPase buffer without detergent, 1 mM ATP. Particulars: both partners purified.
For data set [2], the target named is T1, mitochondrial heat shock protein 60 …. Briefly: SEC-MALS; mtHsp60 samples 17 µM monomer, without ATP; Shodex Protein KW-804, room temperature, 20 mM HEPES pH 7.5, 100 mM KCl, 10 mM MgCl2; heptamer to monomers. Particulars: both partners purified. On the technique in general: SEC sorts molecules by how far they enter the pores of the column.
The next data set has as its target mtHsp60 Y201A (human, UniProt P10809 53-573, Y201A). In words: SEC; analytical SEC of each protein alone (mtHsp60 samples 17 µM monomer); Superdex 200 Increase 3.2/300, room temperature, 20 mM HEPES pH 7.5, 100 mM KCl, 10 mM MgCl2. Particulars: both partners purified.
Data set [3] concerns the molecule itself. The data set is described as above.

Three molecules from article PMC11638070 (Nature Structural & Molecular Biology, 2024) can be followed below.

Positions count from the first letter of the chain named. In names and notes the source's numbering stands.

One may read the stoichiometry N as a count of units in the complex or per binding partner.

B1: mitochondrial heat shock protein 60 V72I (mtHsp60^V72I) (natural protein)
chain: AKDVKFGADARALMLQGVDLLADAVAVTMGPKGRTVIIEQSWGSPKVTKDGVTVAKSIDLKDKYKNIGAKLIQDVANNTNEEAGDGTTTATVLARSIAKEGFEKISKGANPVEIRRGVMLAVDAVIAELKKQSKPVTTPEEIAQVATISANGDKEIGNIISDAMKKVGRKGVITVKDGKTLNDELEIIEGMKFDRGYISPYFINTSKGQKCEFQDAYVLLSEKKISSIQSIVPALEIANAHRKPLVIIAEDVDGEALSTLVLNRLKVGLQVVAVKAPGFGDNRKNQLKDMAIATGGAVFGEEGLTLNLEDVQPHDLGKVGEVIVTKDDAMLLKGKGDKAQIEKRIQEIIEQLDVTTSEYEKEKLNERLAKLSDGVAVLKVGGTSDVEVNEKKDRVTDALNATRAAVEEGIVLGGGCALLRCIPALDSLTPANEDQKIGIEIIKRTLKIPAMTIAKNAGVEGSLIVEKIMQSSSEVGYDAMAGDFVNMVEKGIIDPTKVVRTALLDAAGVASLLTTAEVVVTEIPKEEKDPGMGAMGGMGGGMGGGMF
modifications: heptamer in apo state; ATP/Mg2+/K+ gives double-ring tetradecamer; SNA tag scar left out / heptamer in apo state; ATP/Mg2+/K+ gives double-ring tetradecamer; SNA tag scar left out
Regarding B1, the figures for the “stoichiometry N” value in data set [1] and in data set [2] were 14 and 7, respectively.

B2: mtHsp60 Y201A (natural protein)
chain: B1 chain with I72V, Y201A
modifications: at least partly heptameric by SEC; mature numbering + 26 = precursor; SNA tag scar left out / at least partly heptameric by SEC; mature numbering + 26 = precursor; SNA tag scar left out
For B2, the “stoichiometry N” value in the data set with mtHsp60 Y201A was determined as 7.

B3: mitochondrial malate dehydrogenase labelled with fluorescein isothiocyanate (FITC-mtMDH) (enzyme, human, UniProt P40926 25-338, looked up)
chain: AKVAVLGASGGIGQPLSLLLKNSPLVSRLTLYDIAHTPGVAADLSHIETKAAVKGYLGPEQLPDCLKGCDVVVIPAGVPRKPGMTRDDLFNTNATIVATLTAACAQHCPEAMICVIANPVNSTIPITAEVFKKHGVYNPNKIFGVTTLDIVRANTFVAELKGLDPARVNVPVIGGHAGKTIIPLISQCTPKVDFPQDQLTALTGRIQEAGTEVVKAKAGAGSATLSMAYAGARFVFSLVDAMNGKEGVVECSFVKSQETECTYFSTPLLLGKKGIEKNLGIGKVSSFEEKMISDAIPELKASIKKGEDFVKTLK
modifications: FITC (fluorescein isothiocyanate) label, sites not stated
notes: mitochondrial malate dehydrogenase (mtMDH), human; bacterial expression vector Addgene plasmid no; 38792; Used folded (elutes as a dimer) or chemically denatured (6 M guanidine HCl, 10 mM DTT, 1 h); the two states are told apart by the assays; also called FITC-mtMDH^denat (guanidine-denatured form); source: E. coli Rosetta 2(DE3)pLysS, purified (HisTrap, SEC), labelled with FITC
As for B3, the “stoichiometry N” value in data set [3] came to 2.
